Source: US10301203B2, “Chloroperoxidase-catalyzed degradation of pharmaceutical pollutants in wastewater” (THE FLORIDA INTERNATIONAL UNIVERSITY BOARD OF TRUSTEES, priority 2017, dated 2019)

How the values were obtained:
Assay type in all cases: biochemical
Conditions in all cases: CPO Rz=1.03
[1] = Aromatic hydroxylation activity of CPO, naphthalene hydroxylation
Description: (§1) The halogenation activity of CPO used in this study was 4232 U·mL^−1 based on the standard MCD assay (Hager et al., 1966). The aromatic hydroxylation activity (3563 U·mL-1) of the enzyme was determined by monitoring the hydroxylation of naphthalene into I-naphthol (Kluge et al., 2007). The classic peroxidase activity of the enzyme determined using ABTS as the substrate was 3071 U·mL^−1 (Manoj et al., 2008).

[2] = Standard MCD assay, halogenation activity of CPO
Description: as §1

[3] = Classic peroxidase activity of CPO, ABTS substrate
Description: as §1

B1: CPO: heme-containing glycoprotein secreted by the fungus Caldariomyces fumago (protein, UniProt P04963 21-319, looked up)
Chloroperoxidase: QEPGSGIGYPYDNNTLPYVAPGPTDSRAPCPALNALANHGYIPHDGRAISRETLQNAFLNHMGIANSVIELALTNAFVVCEYVTGSDCGDSLVNLTLLAEPHAFEHDHSFSRKDYKQGVANSNDFIDNRNFDAETFQTSLDVVAGKTHFDYADMNEIRLQRESLSNELDFPGWFTESKPIQNVESGFIFALVSDFNLPDNDENPLVRIDWWKYWFTNESFPYHLGWHPPSPAREIEFVTSASSAVLAASVTSTPSSLPSGAIGPGAEAVPLSFASTMTPFLLATNAPYYAQDPTLGPND
aromatic hydroxylation activity [1]: 3563 U·mL-1 | halogenation activity [2]: 4232 U·mL^−1 | classic peroxidase activity [3]: 3071 U·mL^−1
